Source: paper PMC3835790, “Statistical Experimental Design Guided Optimization of a One-Pot Biphasic Multienzyme Total Synthesis of Amorpha-4,11-diene” (PLoS ONE, 2013)

Columns and labels:
Conditions in all cases: 100 mM Tris/HCl pH 7.4, 30°C
purified protein = substrate: CC(O)(CCO)CC(=O)O; assay: purified protein
[1] = substrate: C[C@@](O)(CCOP(=O)(O)OP(=O)(O)O)CC(=O)O; assay: initial rates, UPLC-(TOF)MS, double-reciprocal plot; format: biochemical, Saccharomyces cerevisiae
Source text: initial rates, UPLC-(TOF)MS, double-reciprocal plot on diphosphomevalonate decarboxylase (Erg19)

[2] = substrate: C[C@@](O)(CCOP(=O)(O)O)CC(=O)O; assay: as above; format: biochemical, Saccharomyces cerevisiae
Source text: initial rates, UPLC-(TOF)MS, double-reciprocal plot on phosphomevalonate kinase (Erg8)

B1: mevalonate kinase (Erg12) (Saccharomyces cerevisiae S288C) (protein)
chain: MSLPFLTSAPGKVIIFGEHSAVYNKPAVAASVSALRTYLLISESSAPDTIELDFPDISFNHKWSINDFNAITEDQVNSQKLAKAQQATDGLSQELVSLLDPLLAQLSESFHYHAAFCFLYMFVCLCPHAKNIKFSLKSTLPIGAGLGSSASISVSLALAMAYLGGLIGSNDLEKLSENDKHIVNQWAFIGEKCIHGTPSGIDNAVATYGNALLFEKDSHNGTINTNNFKFLDDFPAIPMILTYTRIPRSTKDLVARVRVLVTEKFPEVMKPILDAMGECALQGLEIMTKLSKCKGTDDEAVETNNELYEQLLELIRINHGLLVSIGVSHPGLELIKNLSDDLRIGSTKLTGAGGGGCSLTLLRRDITQEQIDSFKKKLQDDFSYETFETDLGGTGCCLLSAKNLNKDLKIKSLVFQLFENKTTTKQQIDDLLLPGNTNLPWTS
With B1 the Km (purified protein) was 460 ± 153 µM and the kcat (purified protein) was 5.5 s⁻¹.

B2: diphosphomevalonate decarboxylase (Erg19) (Saccharomyces cerevisiae S288C) (protein)
chain: MTVYTASVTAPVNIATLKYWGKRDTKLNLPTNSSISVTLSQDDLRTLTSAATAPEFERDTLWLNGEPHSIDNERTQNCLRDLRQLRKEMESKDASLPTLSQWKLHIVSENNFPTAAGLASSAAGFAALVSAIAKLYQLPQSTSEISRIARKGSGSACRSLFGGYVAWEMGKAEDGHDSMAVQIADSSDWPQMKACVLVVSDIKKDVSSTQGMQLTVATSELFKERIEHVVPKRFEVMRKAIVEKDFATFAKETMMDSNSFHATCLDSFPPIFYMNDTSKRIISWCHTINQFYGETIVAYTFDAGPNAVLYYLAENESKLFAFIYKLFGSVPGWDKKFTTEQLEAFNHQFESSNFTARELDLELQKDVARVILTQVGSGPQETNESLIDAKTGLPKE
notes: 6xHis-tagged, modified pET-11a, expressed in E. coli, Ni-NTA purified; calculated mass 45181
B2 showed a Km [1] of 190 ± 52 µM and a kcat [1] of 2.8 ± 0.5 s⁻¹.

B3: phosphomevalonate kinase (Erg8) (Saccharomyces cerevisiae S288C) (protein)
chain: MSELRAFSAPGKALLAGGYLVLDTKYEAFVVGLSARMHAVAHPYGSLQGSDKFEVRVKSKQFKDGEWLYHISPKSGFIPVSIGGSKNPFIEKVIANVFSYFKPNMDDYCNRNLFVIDIFSDDAYHSQEDSVTEHRGNRRLSFHSHRIEEVPKTGLGSSAGLVTVLTTALASFFVSDLENNVDKYREVIHNLAQVAHCQAQGKIGSGFDVAAAAYGSIRYRRFPPALISNLPDIGSATYGSKLAHLVDEEDWNITIKSNHLPSGLTLWMGDIKNGSETVKLVQKVKNWYDSHMPESLKIYTELDHANSRFMDGLSKLDRLHETHDDYSDQIFESLERNDCTCQKYPEITEVRDAVATIRRSFRKITKESGADIEPPVQTSLLDDCQTLKGVLTCLIPGAGGYDAIAVITKQDVDLRAQTANDKRFSKVQWLDVTQADWGVRKEKDPETYLDK
notes: 6xHis-tagged, modified pET-11a, expressed in E. coli, Ni-NTA purified; calculated mass 51520
Protein B3 has a Km [2] of 780 ± 280 µM and a kcat [2] of 22 ± 7 s⁻¹.
